Assay results: patent US20090010941A1, “Methods for treating HIV” (priority 2007, published 2009)
“Also recorded” adds a separate entry of the source. Counter-ions that a name gives are not always drawn.

Columns and labels:
[1] = system: TRAIL-R1 expression on HIV-1 infected macrophages; assay type: cell-based, human
[2] = system: HIV-1 infected macrophages; assay: Cell Death ELISA for histone-associated DNA fragmentation after Imatinib alone; assay type: cell-based, human; conditions: Imatinib alone 24 or 120 hours, no exogenous TRAIL, five days after infection
Procedure: ELISA for Caspase-3 cleavage (to active form) was obtained from Cell Signaling Technologies (Beverley Mass.). Briefly, 1.4×10^6 macrophages infected with WT and envelope-minus viruses were lysed according to the supplier's protocol, 1 hour after the addition of soluble recombinant Trail (100 ng ml-1). Protein content was determined by Bradford Assay (Bio-Rad, Hercules Calif.) and 220 μg of protein in 200 μl from each culture was assayed. ELISA for supernatant release of histone associated DNA fragments released after induced cell death (Roche, Nutley N.J.) was used to measure macrophage longevity. […] In some experiments an MTT assay (Sigma, St. Louis Mo.) was used to measure cell viability. Fluorescent detection of active caspases was performed by pre-treating cells with red-VAD-FMK and flow cytometry according to the manufacturer's protocol (EMD biosciences). For the measurement of apoptosis by Annexin V and propidium iodide staining in flow cytometry reagents were obtained from BioVision (Mountain View Calif.) and used according to the supplier's protocol.

[3] = system: Bcl-2, Mcl-1, BclXL, BimL, Bmf and cFLIP; assay: Western blotting of pro- and anti-apoptotic proteins in the TRAIL signaling pathway; assay type: cell-based, human; conditions: HIV-1 LAI WT infected macrophages, 2 μM Imatinib 16 hours
Procedure: FIG. 11 provides a set of six protein immunoblot images. […] Protein levels of Bcl-2, Mcl-1, BClxL, BimL, Bmf and cFLIP were determined by Western blotting.
It has been shown that envelope induces over-expression of anti-apoptotic genes, Mcl-1, Bfl-1, cIAP-1, cIAP-2 and XIAP, that function in preventing mitochondrial and caspase-mediated apoptosis by TRAIL (Salvesen and Duckett, 2002; Zhang & Fang, 2005; Han et al., 2006).

[4] = in vivo; cited from earlier work
[5] = system: HIV-1 infected macrophages; assay: Apoptosis by Annexin V and propidium iodide staining and flow cytometry; assay type: cell-based, human; conditions: TRAIL exposure without Imatinib treatment
[6] = system: HIV-1 LAI infected macrophages; assay: Macrophage viability with increasing concentrations of TRAIL (MTT assay); assay type: cell-based, human; conditions: 16 hours
Procedure: FIG. 5. provides three graphs showing that cell viability and virus production in the presence of TRAIL requires an intact envelope gene and is augmented by M-CSF. Macrophage viability and virus production in the presence of increasing concentrations of TRAIL is shown in FIG. 5A and FIG. 5B, respectively. Four days after infection with pseudotyped HIV-1 LAI WT or Δenv viruses, macrophages were incubated with increasing concentrations of soluble TRAIL and cell viability (FIG. 5A) and virus production (FIG. 5B) determined after 16 hours by MTT assay and reverse transcriptase production, respectively. Activated CD8+ T cells suppress viral replication in macrophages via TRAIL (FIG. 5C). Macrophages were infected with pseudotyped wild-type or envelope-minus HIV-1 LAI variants and monitored for virus production in a 24 hour period after incubation with Anti-CD3/CD28 stimulated autologous CD8+ TRAIL+T lymphocytes for 4 hours. Macrophages were pre-treated for 16 hours with M-CSF neutralizing antibody or isotype control and T cells were preincubated with recombinant TRAIL-R1 or control receptor (5 μg·ml-1) for 1 hour. […]
ELISA for Caspase-3 cleavage (to active form) was obtained from Cell Signaling Technologies (Beverley Mass.). […] Protein content was determined by Bradford Assay (Bio-Rad, Hercules Calif.) and 220 μg of protein in 200 μl from each culture was assayed. […]

HIV-1 LAI = assay: Virus production with increasing concentrations of TRAIL (reverse transcriptase); assay type: cell-based, human; conditions: 16 hours
Procedure: FIG. 5. provides three graphs showing that cell viability and virus production in the presence of TRAIL requires an intact envelope gene and is augmented by M-CSF. Macrophage viability and virus production in the presence of increasing concentrations of TRAIL is shown in FIG. 5A and FIG. 5B, respectively. Four days after infection with pseudotyped HIV-1 LAI WT or Δenv viruses, macrophages were incubated with increasing concentrations of soluble TRAIL and cell viability (FIG. 5A) and virus production (FIG. 5B) determined after 16 hours by MTT assay and reverse transcriptase production, respectively. Activated CD8+ T cells suppress viral replication in macrophages via TRAIL (FIG. 5C). Macrophages were infected with pseudotyped wild-type or envelope-minus HIV-1 LAI variants and monitored for virus production in a 24 hour period after incubation with Anti-CD3/CD28 stimulated autologous CD8+ TRAIL+T lymphocytes for 4 hours. Macrophages were pre-treated for 16 hours with M-CSF neutralizing antibody or isotype control and T cells were preincubated with recombinant TRAIL-R1 or control receptor (5 μg·ml-1) for 1 hour.
The differential sensitivity of wild type and envelope minus HIV-1 infected macrophages to TRAIL-mediated cell killing correlated with the concentration of TRAIL required to impact cell viability and virus production. […]

[7] = system: HIV-1 infected macrophages; assay: Macrophage half-life in the presence of TRAIL (cell death ELISA); assay type: cell-based, human; conditions: soluble TRAIL 100 ng·ml-1
Procedure: (§1) Macrophages were infected with pseudotyped wild-type or envelope-minus HIV-1 LAI variants and monitored for virus production (FIG. 4A). At 8 days post infection, cultures were incubated with soluble TRAIL (100 ng·ml-1) and apoptosis determined by ELISA for active (cleaved) Caspase 3. […] Macrophage cultures, equally infected with pseudotyped HIV-1 LAI WT or Δenv viruses or mock infected, were examined by phase contrast microscopy after incubation with 100 ng/ml TRAIL (1 hour treatment with TRAIL followed by 5 hours incubation after removal of TRAIL). […] Eight days after infection with pseudotyped HIV-1 LAI WT or Δenv viruses, macrophages were incubated with soluble TRAIL (100 ng·ml-1) and percentage of viable cells remaining extrapolated from the level of cell death determined from ELISA. Macrophage half-life was calculated from the linear regression slope and expressed in hours+/−SD.
Macrophages are a long-lived reservoir of HIV in vivo and a source of viral rebound (reviewed in Stevenson, 2003). The evasion of apoptosis in other human viral infections contributes to viral persistence and enables the infected cell to survive in the face of a hostile microenvironment (Raftery et al., 2001; Secchiero et al., 2001; Tollefson et al. 1998; Tollefson et al. 2001). Therefore we determined the half-life of HIV-1 infected macrophages in the presence of a concentration of TRAIL capable of inducing apoptosis. […] Thus resistance to TRAIL can potentially provide a significant advantage to macrophages infected by HIV-1.
ELISA for Caspase-3 cleavage (to active form) was obtained from Cell Signaling Technologies (Beverley Mass.). Briefly, 1.4×10^6 macrophages infected with WT and envelope-minus viruses were lysed according to the supplier's protocol, 1 hour after the addition of soluble recombinant Trail (100 ng ml-1). Protein content was determined by Bradford Assay (Bio-Rad, Hercules Calif.) and 220 μg of protein in 200 μl from each culture was assayed. […]

[8] = system: HIV-1 infected macrophages; assay: TRAIL-mediated apoptosis by ELISA for active (cleaved) Caspase 3; assay type: cell-based, human; conditions: HIV-1 WT infected macrophages, Day 2
Procedure: as §1
Relationship of apoptosis by TRAIL, M-CSF release and TRAIL-R1 expression in macrophages infected with pseudotyped wild type or envelope minus HIV-1 HSA viruses. In FIG. 6A, M-CSF release as a function of time was determined by ELISA. In FIG. 6B, TRAIL-R1 expression as a function of time was measured by flow cytometry. In FIG. 6C, TRAIL-mediated apoptosis in macrophages was analyzed by ELISA for active (cleaved) Caspase 3 in parallel cultures during the infection (Error bars, SD). […]

[9] = macrophages infected with pseudotyped HIV-1 LAI Δenv
[10] = macrophages infected with pseudotyped wild type HIV-1 LAI

Cc1ccc(NC(=O)c2ccc(CN3CCN(C)CC3)cc2)cc1Nc1nccc(-c2cccnc2)n1 [Imatinib, Imatinib mesylate]
TRAIL-R1 expression on uninfected macrophages ([1]; uninfected macrophages, also those in cultures of infected cells, Imatinib 16 hours): did not promote TRAIL-R1 expression | apoptosis (histone-associated DNA fragmentation) of wild-type-infected macrophages [2]: results in apoptosis of wild-type-infected macrophages; also recorded: removed the requirement for exogenous TRAIL | expression of pro- and anti-apoptotic proteins [3]: cause a shift in the expression of the proteins in favor of cellular apoptosis | bioavailability to the brain [4]: poor bioavailability to the brain

B1: exogenous M-CSF: recombinant macrophage colony stimulating factor added to macrophage cultures (protein, UniProt P09603 33-554, looked up)
Macrophage colony-stimulating …: EEVSEYCSHMIGSGHLQSLQRLIDSQMETSCQITFEFVDQEQLKDPVCYLKKAFLLVQDIMEDTMRFRDNTPNAIAIVQLQELSLRLKSCFTKDYEEHDKACVRTFYETPLQLLEKVKNVFNETKNLLDKDWNIFSKNCNNSFAECSSQDVVTKPDCNCLYPKAIPSSDPASVSPHQPLAPSMAPVAGLTWEDSEGTEGSSLLPGEQPLHTVDPGSAKQRPPRSTCQSFEPPETPVVKDSTIGGSPQPRPSVGAFNPGMEDILDSAMGTNWVPEEASGEASEIPVPQGTELSPSRPGGGSMQTEPARPSNFLSASSPLPASAKGQQPADVTGTALPRVGPVRPTGQDWNHTPQKTDHPSALLRDPPEPGSPRISSLRPQGLSNPSTLSAQPQLSRSHSSGSVLPLGELEGRRSTRDRRSPAEPEGGPASEGAARPLPRFNSVPLTDTGHERQSEGSFSPQLQESVFHLLVPSVILVLLAVGGLLFYRWRRRSHQEPQRADSPLEQPEGSPLTQDDRQVELPV
TRAIL-R1 expression ([1]; macrophages infected with an envelope defective virus, exogenous M-CSF 16 hours): down-regulated TRAIL-R1

B2: TRAIL: soluble human recombinant TRAIL (TNF-related apoptosis-inducing ligand) obtained from Axxora LLC (protein, UniProt P50591 39-281, looked up)
extracellular domain: TNELKQMQDKYSKSGIACFLKEDDSYWDPNDEESMNSPCWQVKWQLRQLVRKMILRTSEETISTVQEKQQNISPLVRERGPQRVAAHITGTRGRSNTLSSPNSKNEKALGRKINSWESSRSGHSFLSNLHLRNGELVIHEKGFYYIYSQTYFRFQEEIKENTKNDKQMVQYIYKYTSYPDPILLMKSARNSCWSKDAEYGLYSIYQGGIFELKENDRIFVSVTNEHLIDMDHEASFFGAFLVG
modifications: extracellular domain
notes: soluble human recombinant TRAIL (TNF-related apoptosis-inducing ligand) obtained from Axxora LLC
apoptosis of infected macrophages [5]: 3.9% | TRAIL concentration effecting ~50% reduction in cell viability [6, 9]: 3 ng/mL | TRAIL concentration required for ~50% reduction in viability [6, 10]: > 30 ng/mL | TRAIL concentration effecting ~50% reduction in virus output (HIV-1 LAI; [9]): 3 ng/mL | TRAIL concentration required for ~50% reduction in virus output (HIV-1 LAI; [10]): > 50 ng/mL | macrophage half-life in the presence of TRAIL ([7]; HIV-1 Δenv infected macrophages): around 36 hours | macrophage half-life in the presence of TRAIL ([7]; mock infected cultures): 81 h | macrophage half-life in the presence of TRAIL ([7]; wild type infected cultures): 110 h | TRAIL-induced active caspase 3 elevation [8]: 3 fold
